Test results taken from patent publication US20160122426A1 (DONG A SOCIO, published 2016).

T1: mouse VEGF (mouse, UniProt Q00731-2 27-190)
T1 construct: Bought recombinant protein; also called mVEGF-A; mouse VEGF-A
T1 sequence (looked up): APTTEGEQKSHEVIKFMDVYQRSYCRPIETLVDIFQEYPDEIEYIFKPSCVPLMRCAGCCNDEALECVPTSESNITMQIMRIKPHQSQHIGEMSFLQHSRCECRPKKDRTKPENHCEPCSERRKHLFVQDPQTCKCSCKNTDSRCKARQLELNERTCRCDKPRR

T2: human VEGF-C (human, UniProt P49767 103-227, limits assumed)
T2 construct: also called hVEGF-C
T2 sequence (looked up): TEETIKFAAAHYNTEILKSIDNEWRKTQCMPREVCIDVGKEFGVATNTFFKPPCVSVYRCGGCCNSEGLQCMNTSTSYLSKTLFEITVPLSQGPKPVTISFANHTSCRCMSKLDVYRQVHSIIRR

T3: human placental growth factor (human, UniProt P49763-2 21-149, limits assumed)
T3 construct: also called PlGF; PIGF
T3 sequence (looked up): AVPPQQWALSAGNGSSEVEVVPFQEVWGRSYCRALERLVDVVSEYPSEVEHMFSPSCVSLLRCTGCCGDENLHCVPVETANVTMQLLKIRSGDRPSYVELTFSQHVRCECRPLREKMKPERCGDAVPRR

T4: human VEGF-D (human, UniProt O43915 93-201, limits assumed)
T4 construct: also called hVEGF-D
T4 sequence (looked up): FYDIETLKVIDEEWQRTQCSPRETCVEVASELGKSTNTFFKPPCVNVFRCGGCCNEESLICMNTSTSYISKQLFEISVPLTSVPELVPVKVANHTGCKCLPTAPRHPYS

T5: human VEGF-B (human, UniProt P49765-2 22-188, limits assumed)
T5 construct: also called hVEGF-B
T5 sequence (looked up): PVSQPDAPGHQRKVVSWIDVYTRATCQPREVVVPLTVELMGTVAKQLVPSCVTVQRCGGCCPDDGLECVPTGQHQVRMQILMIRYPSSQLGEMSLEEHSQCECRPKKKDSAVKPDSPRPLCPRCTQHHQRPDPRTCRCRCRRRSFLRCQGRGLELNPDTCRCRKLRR


Tests used:
human VEGF [1] = target: T6, human VEGF (human, UniProt P15692-4 27-191); assay: ELISA, human VEGF coated, anti-human Fc-HRP, absorbance 450 nm [b]
T6 construct: Bought recombinant protein; also called hVEGF; human VEGF-A
Description: (§1) 1.5 ng of human VEGF diluted in 150 μL of buffer solution was placed in 96-well immune plate (Nunc, USA), and adsorbed at 4° C. overnight, followed by washing 3 times with a buffer solution containing 0.1% Tween 20. Then, they were reacted with a buffer solution including 1% bovine serum albumin (Sigma, USA) for 1 hr at room temperature, and washed 3 times. Then each well was treated with 150 μL of serially diluted antibody (1 ng/mL, 10 ng/mL, 30 ng/mL, 100 ng/mL, 1000 ng/mL and 3000 ng/mL) They were allowed to react for 1 hr at room temperature so that antigens may bind to antibodies, followed by washing 3 times with a buffer solution.
(§2) Each well was treated at 150 μL per well with anti-human immunoglobulin Fc-HRP antibody (AbSerotec, USA) diluted 1:20000 and allowed to react for 1 hr at room temperature. After the reaction was completed, washing was performed 3 times with a buffer solution, followed by addition of 150 μL of TMB (Sigma, USA) and color development for 10 min. The reaction was terminated with 1N sulfuric acid solution, and absorbance was measured at 450 nm using a spectrophotometer (Molecular Device, USA).

human VEGF [2] = target: T6, human VEGF; assay: ELISA, human VEGF coated, anti-human Fc-HRP, absorbance 450 nm [c]
Description: as §1, §2

mouse VEGF [3] = target: T1, mouse VEGF; assay: ELISA, mouse VEGF coated, anti-human Fc-HRP, absorbance 450 nm [a]
human VEGF [4] = target: T6, human VEGF; assay: competition ELISA: human VEGF coated, 9 nM KDR ECD IgG-Fc (VEGFR2) added together with the antibody, bound receptor-Fc detected, absorbance 405 nm
Description: 0.5 μg/ml of human VEGF was coated to 96-well ELISA plate and blocked with PBS solution containing 3% BSA and 0.05% Tween 20.

human VEGF-C = target: T2, human VEGF-C; assay: ELISA, 0.2 ug/ml protein coated, anti-human IgG-Fab-HRP, absorbance 650 nm; antibody concentration not shown
Description: (§3) 0.2 μg/ml each of the respective proteins (hVEGF-A, mVEGF-A, hVEGF-B, hVEGF-C, hVEGF-D and PlGF) (R&D systems) were coated to the wells of ELISA plate, respectively. After blocking them with PBS containing 3% BSA and 0.05% Tween 20 for 30 min at 37° C., antibody clone proteins of increasing concentrations were incubated at 37° C. for 2 hr. Then, the wells were washed with PBS containing 3% BSA and 0.05% Tween 20 for 3 times, and anti-human IgG-Fab-HRP conjugate (Jackson Immunoresearch, USA) was added thereto and incubated for 1 hr at room temperature. Then they were washed with PBS containing 3% BSA and 0.05% Tween 20 for 3 times, and developed using TMB, and absorbance was measured at 650 nm.

[5] = target: T3, human placental growth factor; assay: as above
Description: as §3

human VEGF-D = target: T4, human VEGF-D; assay: as above
Description: as §3

human VEGF-B = target: T5, human VEGF-B; assay: as above
Description: as §3

human VEGF [6] = target: T6, human VEGF; assay: SPR (BIAcore X100), VEGF on CM5 chip, IgG injected, 1:1 Langmuir
From the text: Meanwhile, to measure the affinity, human VEGF and mouse VEGF were coupled to carboxymethylated dextran biosensor chips (CM5, GE) according to the manufacturer's instructions.
The association and dissociation rates were expressed by the association and dissociation sensorgram, and calculated using a simple 1:1 Langmuir binding model (BIAcore X100 evaluation software, ver. 2.0).
Target sequence in this assay (P15692 other isoform, or with tags, fused parts or gaps limits assumed): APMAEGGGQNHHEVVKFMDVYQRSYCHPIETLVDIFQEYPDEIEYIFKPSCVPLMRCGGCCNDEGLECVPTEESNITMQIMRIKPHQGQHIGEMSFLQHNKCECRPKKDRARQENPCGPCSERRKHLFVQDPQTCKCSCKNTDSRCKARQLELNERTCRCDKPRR

mouse VEGF [7] = target: T1, mouse VEGF; assay: ELISA and BIAcore
human VEGF [8] = target: T6, human VEGF; assay: ELISA and BIAcore
human VEGF [9] = target: T6, human VEGF; assay: ELISA, human VEGF coated, absorbance 650 nm [g]

| EC50 (read off the curve) (human VEGF [1]) [µg/mL] | EC50 (read off the curve) (human VEGF [2]) [µg/mL] | EC50 (read off the curve) (mouse VEGF [3]) [µg/mL] | IC50 (read off the curve) (human VEGF [4]) [nM] | binding result (human VEGF-C) | binding result [5] | binding result (human VEGF-D) | binding result (human VEGF-B) | Kd (human VEGF [6]) [nM] | koff (human VEGF [6]) [s⁻¹] | kon (human VEGF [6]) [M⁻¹ s⁻¹] | fold affinity over mother clone F (mouse VEGF [7]) [times] | fold affinity over mother clone F (human VEGF [8]) [times] | EC50 (read off the curve) (human VEGF [9]) [nM] | Binder |
| --- | --- | --- | --- | --- | --- | --- | --- | --- | --- | --- | --- | --- | --- | --- |
| ~0.04 | ~0.02 | ~0.06 | ~5 | no binding | no binding | no binding | no binding | 0.019 | 2.6e-05 | 1.3e+06 | ≥ 10 | ≥ 10 |  | HF2-5 (antibody, V domains shown, also called HF-5) VH: EVQLVESGGGLVQPGGSLRLSCAASGFMIRSHGMQWVRQAPGKGLEYVAGISSDGSWARHSAAVEGRFTISRDDSKNTAYLQMNSLRAEDTAVYYCARDFSTGYGADSIDAWGQGTLVTVSS VL: DIQMTQSPSSLSASVGDRVTITCSGGSDSAYGYGWYQQKPGKAPKTLIYWDDKRPSGVPSRFSGSRSGTDFTLTISSLQPEDFATYYCGAWEYSGGVGIFGQGTKVEIK |
| ~0.04 |  | ~0.05 | ~5 | no binding | no binding | no binding | no binding | 0.018 | 3.2e-05 | 1.7e+06 | ≥ 10 | ≥ 10 |  | HF2-9 (antibody, V domains shown, also called HF-9) VH: EVQLVESGGGLVQPGGSLRLSCAASMFRIRSHGMQWVRQAPGKGLEYVAGISSDGSWFRVAAAVEGRFTISRDDSKNTAYLQMNSLRAEDTAVYYCARDFSTGYGADSIDAWGQGTLVTVSS VL: DIQMTQSPSSLSASVGDRVTITCSGGSMEPLGYGWYQQKPGKAPKTLIYWDDKRPSGVPSRFSGSRSGTDFTLTISSLQPEDFATYYCGAWEYSGGVGIFGQGTKVEIK |
| ~0.04 |  | ~0.05 | ~5 | no binding | no binding | no binding | no binding | 0.0047 | 6.8e-06 | 1.4e+06 | ≥ 10 | ≥ 10 |  | HF2-11 (antibody, V domains shown, also called HF-11; clone HF2-11) VH: EVQLVESGGGLVQPGGSLRLSCAASGFLIRSHGMQWVRQAPGKGLEYVAGISSDGSWVKVAAAVEGRFTISRDDSKNTAYLQMNSLRAEDTAVYYCARDFSTGYGADSIDAWGQGTLVTVSS VL: DIQMTQSPSSLSASVGDRVTITCSGGSSEPLGYGWYQQKPGKAPKTLIYWDDKRPSGVPSRFSGSRSGTDFTLTISSLQPEDFATYYCGAWEYSGGVGIFGQGTKVEIK |
|  |  |  |  |  |  |  |  |  |  |  | ≥ 10 | ≥ 10 | ~0.2 | HF2-25 (antibody, V domains shown) VH: EVQLVESGGGLVQPGGSLRLSCAASYMEYRSHGMQWVRQAPGKGLEYVAGISSDGSWFRMNAAVEGRFTISRDDSKNTAYLQMNSLRAEDTAVYYCARDFSTGYGADSIDAWGQGTLVTVSS VL: DIQMTQSPSSLSASVGDRVTITCSGGSNFPMGYGWYQQKPGKAPKTLIYWDDKRPSGVPSRFSGSRSGTDFTLTISSLQPEDFATYYCGAWEYSGGVGIFGQGTKVEIK |
|  |  | ~0.08 | ~5 | no binding | no binding | no binding | no binding | < 0.001 | < 1e-06 | 2.5e+06 | ≥ 10 | ≥ 10 |  | HF2-1 (antibody, V domains shown, also called HF-1) VH: EVQLVESGGGLVQPGGSLRLSCAASNFVFRSHGMQWVRQAPGKGLEYVAGISSDGSWTGYGAAVEGRFTISRDDSKNTAYLQMNSLRAEDTAVYYCARDFSTGYGADSIDAWGQGTLVTVSS VL: DIQMTQSPSSLSASVGDRVTITCSGGSDSAYGYGWYQQKPGKAPKTLIYWDDKRPSGVPSRFSGSRSGTDFTLTISSLQPEDFATYYCGAWEYSGGVGIFGQGTKVEIK |
|  | ~0.02 |  |  |  |  |  |  | 0.036 | 5.7e-05 | 1.5e+06 | ≥ 10 | ≥ 10 |  | HF2-8 (antibody, V domains shown, also called HF-8) VH: EVQLVESGGGLVQPGGSLRLSCAASGFHIRSHGMQWVRQAPGKGLEYVAGISSDGSWLKLSAAVEGRFTISRDDSKNTAYLQMNSLRAEDTAVYYCARDFSTGYGADSIDAWGQGTLVTVSS VL: DIQMTQSPSSLSASVGDRVTITCSGGSTYSLGYGWYQQKPGKAPKTLIYWDDKRPSGVPSRFSGSRSGTDFTLTISSLQPEDFATYYCGAWEYSGGVGIFGQGTKVEIK |
|  | ~0.02 |  |  |  |  |  |  | 0.0019 | 3.1e-06 | 1.6e+06 | ≥ 10 | ≥ 10 |  | HF2-4 (antibody, V domains shown, also called HF-4) VH: EVQLVESGGGLVQPGGSLRLSCAASGWSMRSHGMQWVRQAPGKGLEYVAGISSDGSWRRHSAAVEGRFTISRDDSKNTAYLQMNSLRAEDTAVYYCARDFSTGYGADSIDAWGQGTLVTVSS VL: DIQMTQSPSSLSASVGDRVTITCSGGSDSAYGYGWYQQKPGKAPKTLIYWDDKRPSGVPSRFSGSRSGTDFTLTISSLQPEDFATYYCGAWEYSGGVGIFGQGTKVEIK |
|  |  |  |  |  |  |  |  |  |  |  | ≥ 10 | ≥ 10 | ~0.1 | HF2-19 (antibody, V domains shown) VH: EVQLVESGGGLVQPGGSLRLSCAASGFSTRSHGMQWVRQAPGKGLEYVAGISSDGSWKATAAAVEGRFTISRDDSKNTAYLQMNSLRAEDTAVYYCARDFSTGYGADSIDAWGQGTLVTVSS VL: DIQMTQSPSSLSASVGDRVTITCSGGSDSAYGYGWYQQKPGKAPKTLIYWDDKRPSGVPSRFSGSRSGTDFTLTISSLQPEDFATYYCGAWEYSGGVGIFGQGTKVEIK |
